The values below come from patent US20200147199A1.

The test deals with ZIKV E Domain III ([..]), polyhistidine-AviTag, produced in HEK-293-6E cells (ZIKV). The test is described as follows: ELISA on coated ZIKV EDIII. The settings on record: remark: other sources report otherwise. On the technique in general: An ELISA detects its analyte on a solid surface through an enzyme-linked reagent.

Where a chain is given by its changes, count along the chain named.

B1: Z007 (MEX105_50) (antibody, V domains shown)
VH: EVQLLESGGGLVRPGGSLRLSCTASGFTFRRYAMAWVRQAPGKGLEWVSLIYDGDDSTYYAKSVKGRFAISRDNSKNTLSLQMNSLRAEDTAVYYCVKDRDNGWSSIVDWGQGTLVTVSS
VL: DIQMTQSPSTLSASVGDRVTITCRASHSISGWLAWYQQKPGKAPKLLIYQASILESGVPSRFSGSGSGTEFTLTIGSLQPEDFATYFCQQYSTFWTFGQGTKVEIK
For the molecule B1, the EC50 (in general, the concentration needed to bring the measured effect to its halfway point) was 0.0346 µg/mL.

B2: Z008 (MEX105_60) (antibody, V domains shown)
VH: B1 VH with Y32F, Y52W, D53N, K62E, K65R, A69T, K76H, N84R, V93I
VL: B1 VL with H27Q, S28T, S30G, G31N, I53V, G76S
The molecule B2 showed an EC50 of 0.0326 µg/mL.

B3: Z009 (MEX105_64) (antibody, V domains shown)
VH: B1 VH with D53N, K62E, A69T, I70V, K76Q, V93I, K98R
VL: B1 VL with H27R, S28T, S30G, G31S, S56G, G66V, G76R
For the molecule B3, the concentration giving a half-maximal response (EC50) is 0.0284 µg/mL.

B4: Z013 (MEX18_84) (antibody, V domains shown)
VH: EVQLLESGGGLVQPGGSLRLSCAASGFTFTSYAMNWVRQAPGKGLEWVSGIGGRGAIAGDGSIYYADSVKGRFTISRDNSKNIVYLQMNGLRVEDTAVYYCAKDRVAFDGFHVWGQGTLVTVSS
VL: DIQMTQSPPTLSASVGDRVTITCRASQSISSWLAWYQQKPGKAPKLLIYKASSLESGVPSRFSGSGSGTEFSLTISSLQPEDFATYYCQQYNSYPWTFGQGTKVEIK
For the molecule B4, the EC50 was greater than 10 µg/mL.

B5: Z053 (BRA138_65) (antibody, V domains shown)
VH: QLQLQESGPGLVKPSETLSLTCTVSGGSISSYNYYWGWIRQPPGKGLEFIGSIYYTGSTYYNPSLRSRVTISVDTSKNQFSLKLTSVTAADTAVYYCARHGPGMGHNWYFDLWGRGTLVTVSS
VL: EIVLTQSPATLSLSPGERATLSCRASQSISSYLAWYQQKPGQAPRLLIYDASNRAPGIPARFSGSGSGTDFTLTISSLEPEDFAVYYCQQRSTWLTFGGGTKVEIK
The molecule B5 registered a half-maximal effective concentration (EC50) of 1.68 µg/mL.

B6: Z062 (BRA112_70) (antibody, V domains shown)
VH: EVQLVESGGGVVQPGRSLRLSCAASGFSFSSHAMYWVRQAPGKGLEWVAIVSYDGSTKNYADSVKGRFTISRDNSKNTIYLHLNSLRAEDTAVYFCAREVDGIYGYLHYWGQGTLVTVSS
VL: EIVLTQSPATLSLSPGERATLSCRARQNVRNFLAWYQQKPGQAPRLLIYDASNRATDIPARFSGSGSGTDFTLTISSLEPEDFAVYYCQQRSYSITFGQGTRLEIK
Turning to B6, the half-maximal effective concentration (EC50) turned out to be 0.208 µg/mL. Compared with the last molecule, the EC50 is about 8.1-fold lower.

B7: Z052 (BRA138_62) (antibody, V domains shown)
VH: QVQLQESGPGLVKPSQTLSLTCTVSGGSITGGVYYWNWIRHHPGKGLEWIGYMFYSGDTDYNPSLRSRVTISGDTSKNKFSLNLNSVTAADTAVYYCARAGFDYGSPVSAFDIWGQGTLVTVSS
VL: EIVLTQSPATLSLSPGERATLSCRASQSVSSTYLVWYQQKPGQAPRLLIYGASSRATGIPDRFSGSGSGTDFTLTISRLEPEDFAVYFCQQYAHSPRGYTFGQGTKLEIK
B7: the half-maximal effective concentration (EC50) was determined as 0.0131 µg/mL.

B8: Z055 (MEX84_p4-61) (antibody, V domains shown)
VH: EVQLVQSGAEVKKPGASVKVSCKASGYTFSGYYIHWLRQAPGQGLEWMGWINSNSGGADSGPRFHGRVTMTRDTSINTAYLELTNLRSDDTAVYYCARRTYYDTRFPYWYFDLWGRGTLVTVSS
VL: AIRMTQSPSSLSASVGDRVTITCRASQDIGSYLNWYQQKPGKAPNVLISAASTLQSGVPSRISGIGSGTDFTLTISSLQPEDFATYYCQQSLSAPYTFGQGTKLEIK
In turn, B8 had a 50% effective concentration (EC50) of 1.88 µg/mL.

B9: Z005 (MEX18_13) (antibody, V domains shown)
VH: EVQLLESGGGLVQPGGSLRLSCAASGFTFSSYAMSWVRQAPGKGLEWVSSFSGIDDSTWYADSVKGRFTISRDNSKSTLYLQMNSLRAEDTAVYYCAKDRLVRGFAEVLDYWGRGTLVTVSS
VL: DIQMTQSPSSLSASVGDRVTITCRASQDISKYLAWYQQRPGKVPNLLIYTASTLQSGVPSRFSGSGSGTHFTLTISSLQPEDVATYYCQKYNSVPWTFGQGTKVEIK
B9: the concentration giving a half-maximal response (EC50) came out at 0.216 µg/mL.

B10: Z059 (MEX84_p4-34) (antibody, V domains shown)
VH: EVQLVQSGAEVKTPGSSVKVSCKTSGGTFSNFAITWVRQAPGQGLEWMGGIIPLFGITNYTQKFQGRVTITTDESKTTAYMDLSGLRSEDTAVYFCARGRDSSGRLLDHWGQGTLVTVSS
VL: EIVMTQSPATLSVSPGERATLSCRASQTVNRNLAWYQQKPGQAPRLLIYAASARATGVPARFSGSGSGTEFTLTISSLQSEDFVVYYCQQYNNWPPLTFGGGTKLEIK
The molecule B10 returned an EC50 of 0.61 µg/mL.

B11: Z061 (BRA112_36) (antibody, V domains shown)
VH: EVQLVESGGGVVQPGRSLRLSCAASGFTFSISTIHWVRQAPGKGLEYVVVISHDGNTKYYADSVKGRFIISRDNSKNTVFLQMNSLRPVDTAVYYCARGEVGYFDLWGRGTLVTVSS
VL: EIVLTQSPATLSLSPGERATLSCRASQSVSSFLAWYQQKPGQPPRLLIYDASTRATGIPARFSGSGSGTDFTLTISSLEPEDFAVYYCQQRSNWPPITFGQGTRLEIK
On to B11, for which the EC50 was 0.311 µg/mL.

B12: Z051 (BRA138_59) (antibody, V domains shown)
VH: QVQLQESGPGLVKPSQTLSLTCTVSGVSISSGGYYYSWFRQLPGKGLEWIGHIYYTGNTHYNPSLRSRLTISVDTSKNQFSLKLSSVTAADTARYYCARAWCEYAAYCWFDPWGRGTLVTVSS
VL: EIVLTQSPGTLSLSPGERATLSCRASQSVTSSYLAWYQHKPGQAPRLLIYGASSRAPGIPDRFSGSGSGTDFTLTISRLEPEDFAVYWCQQYGRSPFTFGQGTKLEIK
Consider B12, for which the EC50 amounted to 1.86 µg/mL.

B13: Z017 (MEX84_p2-58) (antibody, V domains shown)
VH: QVQLVQSGAGMRKPGASVKVSCKASGYSFNDYYIHWVRQAPGQGLEWMGWINPKSGFTNYAQRFQGRVTMTGDTSNSVAYMELTRLTSDDTAVYYCARGGRINAPLGFDPWGQGTLVTVSS
VL: EIVLTQSPDTLSLSPGETATLSCRASQSIGSISLGWYQQKFGQAPRLLIYGASTRATGTPDRFSGSGSETDFTLTISRLEPEDSAVYYCQQYVSSPLRFGGGTKVEIK
B13 registered an EC50 greater than 10 µg/mL.

B14: Z056 (MEX84_p2-94) (antibody, V domains shown)
VH: EVQLVQSGAEVKKPGASVKVSCKASGNTFMGYYFHWVRQAPGQGLEWMGWINPNSGHANIAQTFQGRVTMTRDPSITTAYMELSRLRSDDTAVFYCARGGMLGQLWALDNWGQGTLVTVSS
VL: DIQMTQSPSTLSASVGDRVTITCRASQSISHWLAWYQQRPGEAPKLLIYQASTLESGVPSRFSGSGSGTEFTLSISSLQPDDFATYYCQQYQSSPYTFGQGTKLEIK
B14 showed a concentration for a half-maximal effect (EC50) of 0.982 µg/mL.

B15: Z016 (MEX84_p2-55) (antibody, V domains shown)
VH: QVQLVQSGAEVKKPGASVKLSCKASGYTFTSYYVHWVRQAPGQGLEWMGIINPGNNFVSFAQNFYDRATMTRDTSTNTVYMELTNLQSEDTAVYYCARTLVAPSAQSMYYFDFWGQGTLVTVSS
VL: EIVLTQSPGTLSLSPGERGTLSCRASQYITTGHFAWYQQKPGRAPRLLIYGASVRATGVPDRFSGSGAETDFTLTISRLDPEDVGVYYCQQYGSSPVTFGPGTKVDIK
On to B15, for which the EC50 stood at 0.0724 µg/mL.

B16: Z036 (BRA112_91) (antibody, V domains shown)
VH: EVQLLESGGDLVQPGGSLRLSCAASGFTFSTYGMAWVRQAPGKGLEWLSSISSVDDSKYYAASVKGRFTISRDNSRNTLYLHMNSLRVDDTAVYYCAKDRIPHGLGELYANWGQGTLVTVSS
VL: DIQMTQSPSTLSASVGDRVTITCRASQSISGWLAWYQQKPGKAPRLLMHKASNLYSGVPSRFSGSGSGTEFTLTISSLQPDDFATYYCQHYHSYPYTFGQGTKVEIK
For B16, the EC50 is 0.0172 µg/mL.

B17: Z002 (MEX18_27) (antibody, V domains shown)
VH: EVQLLESGGGLVQPGGSLRLSCATSGFTFSTYAMSWVRQAPGKGLEWVSSFSGVDDSTYYAESVKGRFTISRDNSKNTVYLQMTRLRAEDTAVYYCAKDRGPRGVGELFDSWGQGTLVTVSS
VL: DIQMTQSPSTLSASVGDRVTMTCRASQSINRWLAWYQQKPGKAPKLLIYTTSTLKSGVPSRFSGSGSGTEFTLTISSLQPDDFATYYCQHFHSVPWTFGQGTKVEIK
With B17, the EC50 turned out to be 0.0252 µg/mL.

B18: Z034 (BRA112_09) (antibody, V domains shown)
VH: EVQLLESGGGLAQPGGSLRLSCETSGFTFRSYGMGWVRQAPGKGLEWVSSIYISGDSTYYAASVKGRFTISRDNSKSTLYLQMDRLTAEDTAVYYCVRDRIQGGFGELYRYWGQGTLVTVSS
VL: B17 VL with I29V, R31K, T50E, T53I, K55E, P59S, F91Y, S93G, V94Y
B18 showed a concentration giving a half-maximal response (EC50) of 0.0235 µg/mL. The EC50 values of the last two molecules are within 1.5-fold of each other.

B19: Z011 (MEX105_15) (antibody, V domains shown)
VH: EVQLLESGGGLVQPGGSLRLSCAASGFTFRTYAMSWVRQPPGKGLEWVSSISAREDSTYFAASVRGRFTISRDNSKNTLYLQMNNLRAEDTALYYCAKDRLQLGVGELYESWGQGTLVTVSS
VL: B4 VL with P9S, S28N, S30N, K50M, E55Q, S72T, I75V, E81D, Q90H, N92H
B19 displayed an EC50 of 0.038 µg/mL.

B20: Z003 (MEX18_58) (antibody, V domains shown)
VH: EVQLLESGGGLVQPGGSLRLSCATSGFTFTTFAMSWVRQAPGKGLEWVSSISGADDSTYYAASVKGRFTISRDNSRSTLFLQMNSLRAEDTAVYYCAKDRGPRGVGELFDSWGQGTLVTVSS
VL: B17 VL with M21I, N30S, R31K, K45R, H92F
B20 yielded a concentration for a half-maximal effect (EC50) of 0.0255 µg/mL.

B21: Z050 (BRA138_28) (antibody, V domains shown)
VH: QVQLVQSGAEVKKPGSSVKVSCKAPGGTFSRYSIAWVRQAPGQGLEWMGGINPTFTTPNYAQKFQGRVTITADESTNTAYLDLSSLRSEDTAVYYCARFRYYYESGGYSDASPYYLDYWGQGTLVTVSS
VL: EIVLTQSPATLSLSPGERVTLSCRASQSVSSYLAWYQQKPGQAPRLLIYDASNRATGIPARFTGSGSGTDFTLTISSLEPEDFAVYYCQQRSNWPLTFGGGTKVEIK
In turn, B21 had a concentration giving a half-maximal response (EC50) of 0.0303 µg/mL.

B22: Z057 (MEX84_p4-54) (antibody, V domains shown)
VH: EVQLVQSGAEVKRPGASVKVSCKASGYTFADYYIHWVRQAPGLGLEWMGWINPKTGFSHYEQTFQGRVTMARDTSIPAAYMELSSLKSDDTAIYYCARGGRINVAEALRYWGQGSLVTVSS
VL: DIQMTQSPSTLSTFVGDRVTITCRASQTIGDWLAWYQQKPGKAPKLLISKATRLESGVPSRFSGSGSETEFSLTINSLQPDDVAAYYCQQYMSYPWTFGQGTKLEIK
For the molecule B22, the concentration giving a half-maximal response (EC50) came out at 0.0828 µg/mL.
